Results from the supplement of paper PMC10724198.
± gives the standard deviation of the averaged measurements.

Test system: Saccharomyces cerevisiae
Assay: protein stability index of tFT-peptide fusion (C-terminal peptide) (PSI (0-1 scale)); higher = more stable (slower turnover)
Conditions: genetic background: wild type; temperature: 30 C
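Note: PSI is a weighted mean of sequencing reads over stability bins, variants kept only with over 10 reads, mCherry proximal and sfGFP distal, peptide attached via GGGS linker.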

Row | Sequence | protein stability index
1 | SGTRARGKGVVC | 0.6421 ± 0.0024
2 | LPPSSLTLSPSS | 0.675 ± 0.045
3 | YFLPESKIGRSG | 0.705 ± 0.023
4 | GSNRTLSLYCVG | 0.633 ± 0.016
5 | KKRMDKIKDKKI | 0.713 ± 0.098
6 | LLFSSPPARMCP | 0.786 ± 0.1
7 | LPACPHPPPLPD | 0.6594 ± 0.0047
8 | PSPAAPSPPCLP | 0.64 ± 0.045
9 | GLASLTGVPRCW | 0.723 ± 0.027
10 | LPPPSLPGPSAS | 0.786 ± 0.059
11 | SIQHGRFLTLSV | 0.585 ± 0.0093
12 | SSLRSFPLLEHT | 0.6857 ± 0.0012
13 | KLFWYLDCKLLY | 0.579 ± 0.0073
14 | PLVVETNRFGDV | 0.6988 ± 0.004
15 | PRRQCIRAPCAR | 0.641 ± 0.018
16 | LCPDFSLQWSFD | 0.759 ± 0.019
17 | TRNNDKQTDTIV | 0.729 ± 0.048
18 | LSQFQEPPFYLF | 0.708 ± 0.044
19 | IKKIEKANRKTK | 0.661 ± 0.034
20 | LVLRLLRGFLPK | 0.681 ± 0.014
21 | LAPPIRPCPPSP | 0.681 ± 0.056
22 | GMRRGGGWCRGW | 0.674 ± 0.027
23 | PPPDTPSPPSSL | 0.668 ± 0.026
24 | DHSAPIIPMMKV | 0.6239 ± 0.0058
25 | GWRACGRGLVGK | 0.712 ± 0.011

Row | Sequence | protein stability index
26 | INKKKQRIRGKN | 0.69 ± 0.064
27 | SLSQWTSPGLNI | 0.708 ± 0.091
28 | VVVSGGGEGFWL | 0.745 ± 0.027
29 | PPFAPAPALSAS | 0.758 ± 0.11
30 | SPPPPGPLPPPS | 0.718 ± 0.038
31 | KKGRGEGTKKKR | 0.602 ± 0.047
32 | GSCGWCGVARWG | 0.762 ± 0.05
33 | CKIDGGIIRTCR | 0.676 ± 0.023
34 | PPASFTPPFLPP | 0.69 ± 0.013
35 | RSKDEKNKIGYK | 0.683 ± 0.044
36 | LMSGFFCGLLYA | 0.6181 ± 0.0029
37 | EWGWGRIVNGRE | 0.6869 ± 0.0032
38 | MQLWECKQSLCD | 0.696 ± 0.017
39 | RWGGVVRGCSGG | 0.687 ± 0.036
40 | IPPDAFAQLTYS | 0.733 ± 0.0093
41 | PGKRPTERLAPS | 0.749 ± 0.026
42 | CQSRLPSTKNRH | 0.695 ± 0.015
43 | HSPPRPPFHPRF | 0.70091 ± 0.0004
44 | LLSSPYPPDTFT | 0.6427 ± 0.0012
45 | LLLPSTPSPLLY | 0.609 ± 0.014
46 | KKKKKKKEKKAK | 0.644 ± 0.042
47 | IFFFFHSPYFFS | 0.68 ± 0.018
48 | LVVPNFPLSFSV | 0.732 ± 0.055
49 | EFDCVGCFRTLR | 0.6618 ± 0.0017
50 | YWGGWWGGWEIG | 0.689 ± 0.014

Row | Sequence | protein stability index
51 | AICSVRSGITLS | 0.6529 ± 0.0019
52 | WRGGAWVRGCVL | 0.74 ± 0.04
53 | GWRVVWAVCGHF | 0.597 ± 0.092
54 | PPQLHVALPHPE | 0.852 ± 0.2
55 | LSLTCLSSPPPA | 0.654 ± 0.034
56 | GGGGGVRLVVSR | 0.668 ± 0.027
57 | SGGVRDDFLWVL | 0.728 ± 0.016
58 | TSVAYVWRLFTE | 0.597 ± 0.016
59 | PRPCPASSPRPP | 0.627 ± 0.083
60 | WIRVYPDSSSPL | 0.8557 ± 0.002
61 | ARPAPPLPAIPL | 0.663 ± 0.043
62 | RGKSPPPSSPPL | 0.684 ± 0.024
63 | PALPPPFPPFSP | 0.72 ± 0.084
64 | LLSFLLFFVPGS | 0.576 ± 0.0013
65 | PHLHLPPPPISA | 0.5857 ± 0.00069
66 | ASRADSALGITV | 0.727 ± 0.055
67 | LPPPPAPSSAPL | 0.735 ± 0.14
68 | SHAAKRYNHPHS | 0.7333 ± 0.00094
69 | RSEIKKPIVIKT | 0.576 ± 0.045
70 | NYRPAHSFGVIS | 0.725 ± 0.018
71 | SLVLFRSCSFFS | 0.669 ± 0.024
72 | TVYSPAYSIIHQ | 0.584 ± 0.053
73 | CLRLAFPSGPCI | 0.683 ± 0.098
74 | CVSYLVIFDRRY | 0.6742 ± 0.0043
75 | KRLEFLTHAVFK | 0.7281 ± 0.0025

Row | Sequence | protein stability index
76 | FLSAGLSILAAP | 0.683 ± 0.043
77 | WVSHMHLGSFVH | 0.701 ± 0.09
78 | PNTNIRTHCQWI | 0.709 ± 0.02
79 | GQLGGRGNRRVA | 0.718 ± 0.041
80 | YLCLPPALISRI | 0.656 ± 0.029
81 | IRLLNKAACVTM | 0.742 ± 0.04
82 | AWEETISVIGVM | 0.711 ± 0.048
83 | SGAWSGGGESGH | 0.596 ± 0.058
84 | GGGLGGGGFRGG | 0.749 ± 0.033
85 | FWSCCCTLLFCV | 0.5974 ± 0.002
86 | LYPNPPLLPCSP | 0.612 ± 0.046
87 | AHPPPPPPPPAP | 0.677 ± 0.14
88 | ARGGGPERIHPE | 0.66362 ± 0.00048
89 | YCPPHRCEAECI | 0.657 ± 0.06
90 | HSNGADTFSEGE | 0.648 ± 0.033
91 | FLSPPSPWPSFP | 0.688 ± 0.059
92 | PLLGPSCLRPPS | 0.791 ± 0.17
93 | RTPPCLTPLEET | 0.713 ± 0.037
94 | PPYPRRWAPLGP | 0.6872 ± 0.0051
95 | GGVGCLGVFSVG | 0.7 ± 0.013
96 | ATYNRPPPPGLD | 0.682 ± 0.068
97 | FLNLPLSAFVLL | 0.583 ± 0.062
98 | TEDGSYGESEQA | 0.642 ± 0.023
99 | EFRQVDGRASRP | 0.701 ± 0.0049
100 | RGGGWVLEVLLG | 0.5195 ± 0.0024

Row | Sequence | protein stability index
101 | GPPPPPPPASPH | 0.715 ± 0.1
102 | ESRNEPDQRLCQ | 0.686 ± 0.013
103 | VGKVRGLEAVEE | 0.683 ± 0.0052
104 | HLAHVCYEVPTY | 0.568 ± 0.04
105 | SFSSHPPFAPSF | 0.745 ± 0.018
106 | DIKKLNKKAKIK | 0.777 ± 0.15
107 | DSSLHRLASLKT | 0.643 ± 0.075
108 | YQEIIKRQTGNK | 0.745 ± 0.012
109 | STPHPPPILHVL | 0.581 ± 0.013
110 | DDSFNPWSVRVH | 0.7154 ± 0.006
111 | HLGVLDSFLAEG | 0.629 ± 0.028
112 | PHAGPLHTPLRL | 0.699 ± 0.019
113 | PMHVILGLSGQP | 0.732 ± 0.059
114 | QMTSRVPIGRLY | 0.696 ± 0.0035
115 | RDGDVRTLMGWD | 0.732 ± 0.037
116 | EIEFRLKLGTGV | 0.655 ± 0.04
117 | HLIVPESVVHDL | 0.747 ± 0.18
118 | IDSKSPTHPLHQ | 0.71 ± 0.059
119 | GIRKNIDNNEKI | 0.686 ± 0.03
120 | HPTRHPPTPPCY | 0.704 ± 0.018
121 | SSPPFPLSLPLY | 0.682 ± 0.0017
122 | KKTKKKRTEPQP | 0.724 ± 0.068
123 | LLPVFFISYPSS | 0.6545 ± 0.0053
124 | PDTRLGIIITNM | 0.701 ± 0.083
125 | GEFSINDGSGWT | 0.7106 ± 0.0045

Row | Sequence | protein stability index
126 | GAGSRRRNWGGW | 0.711 ± 0.0081
127 | GEGAWNRKKPGD | 0.632 ± 0.067
128 | IDKRWVKKGGDK | 0.64 ± 0.071
129 | TGMYHSQPYPAA | 0.677 ± 0.0071
130 | HRTKRPKTKRPP | 0.628 ± 0.036
131 | LALTFRLQAPLA | 0.695 ± 0.017
132 | SRVWVGQMIRGR | 0.664 ± 0.019
133 | PSPAHLPPRSPL | 0.714 ± 0.2
134 | GLARSICRNYGL | 0.706 ± 0.014
135 | YDVGSKAVLTLE | 0.566 ± 0.0074
136 | PLPPPSLPPSPS | 0.699 ± 0.036
137 | GVCSRVFLGRVE | 0.6836 ± 0.0065
138 | RGVVGFVGVVRE | 0.6445 ± 0.0027
139 | RAFEGGRHCRAG | 0.67 ± 0.049
140 | RLFSAWGCGLPL | 0.7 ± 0.019
141 | HRGAVRGGSEIW | 0.729 ± 0.033
142 | GTRAETQWSVGM | 0.682 ± 0.013
143 | EKIKNKDYIEKT | 0.887 ± 0.094
144 | GYDEREKPVLLR | 0.753 ± 0.042
145 | FAECVCVVCPLV | 0.6319 ± 0.0053
146 | KIKKKRGKTKKK | 0.708 ± 0.018
